What is called Kd is the constant that tells how readily two partners part at equilibrium.

1 molecule from paper PMC4191604 (Journal of Medicinal Chemistry, 2014) can be followed below.

Assay in all cases: SPR
For orientation: Surface plasmon resonance follows binding to a sensor surface in real time, without labels.

The target of one experiment is T1, GBP1 mutant D184A (human, UniProt P32455 1-592, D184A).
T1 sequence (looked up): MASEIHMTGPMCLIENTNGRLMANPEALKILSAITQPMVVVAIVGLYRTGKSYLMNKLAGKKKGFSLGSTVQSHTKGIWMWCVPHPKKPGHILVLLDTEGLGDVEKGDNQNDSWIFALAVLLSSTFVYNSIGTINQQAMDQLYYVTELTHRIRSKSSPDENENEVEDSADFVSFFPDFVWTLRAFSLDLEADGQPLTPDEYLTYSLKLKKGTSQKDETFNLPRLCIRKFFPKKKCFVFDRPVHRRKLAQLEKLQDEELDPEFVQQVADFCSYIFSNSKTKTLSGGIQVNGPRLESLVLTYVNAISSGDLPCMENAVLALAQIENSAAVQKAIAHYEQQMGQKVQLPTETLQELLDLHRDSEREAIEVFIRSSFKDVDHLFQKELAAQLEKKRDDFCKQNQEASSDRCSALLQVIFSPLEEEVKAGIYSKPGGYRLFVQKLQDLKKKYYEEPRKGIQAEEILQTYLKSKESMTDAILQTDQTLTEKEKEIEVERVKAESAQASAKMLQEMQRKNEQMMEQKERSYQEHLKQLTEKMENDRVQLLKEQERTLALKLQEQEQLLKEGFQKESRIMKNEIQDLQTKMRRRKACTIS

The next experiment addresses T2, GBP1 mutant Q72A (human, UniProt P32455 1-592, Q72A).
T2 sequence (looked up): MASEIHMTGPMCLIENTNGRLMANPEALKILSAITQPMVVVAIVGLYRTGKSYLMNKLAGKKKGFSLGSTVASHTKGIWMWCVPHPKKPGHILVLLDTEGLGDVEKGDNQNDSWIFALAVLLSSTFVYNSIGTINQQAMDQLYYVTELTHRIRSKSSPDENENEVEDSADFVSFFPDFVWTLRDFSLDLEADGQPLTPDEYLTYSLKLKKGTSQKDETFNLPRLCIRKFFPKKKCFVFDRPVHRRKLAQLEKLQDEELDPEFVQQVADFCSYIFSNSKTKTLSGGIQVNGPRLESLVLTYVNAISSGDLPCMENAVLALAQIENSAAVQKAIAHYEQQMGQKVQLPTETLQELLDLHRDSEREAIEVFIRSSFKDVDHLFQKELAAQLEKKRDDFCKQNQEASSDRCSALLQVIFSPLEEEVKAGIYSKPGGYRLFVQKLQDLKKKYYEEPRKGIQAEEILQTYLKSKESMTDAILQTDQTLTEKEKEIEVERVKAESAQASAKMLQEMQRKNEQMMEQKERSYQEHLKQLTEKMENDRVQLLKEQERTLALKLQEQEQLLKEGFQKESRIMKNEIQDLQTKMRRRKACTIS

The target of experiment [1] is T3, GBP1 GTPase (human GBP1, recombinant wild type) (human, UniProt P32455 1-592).
T3 sequence (looked up): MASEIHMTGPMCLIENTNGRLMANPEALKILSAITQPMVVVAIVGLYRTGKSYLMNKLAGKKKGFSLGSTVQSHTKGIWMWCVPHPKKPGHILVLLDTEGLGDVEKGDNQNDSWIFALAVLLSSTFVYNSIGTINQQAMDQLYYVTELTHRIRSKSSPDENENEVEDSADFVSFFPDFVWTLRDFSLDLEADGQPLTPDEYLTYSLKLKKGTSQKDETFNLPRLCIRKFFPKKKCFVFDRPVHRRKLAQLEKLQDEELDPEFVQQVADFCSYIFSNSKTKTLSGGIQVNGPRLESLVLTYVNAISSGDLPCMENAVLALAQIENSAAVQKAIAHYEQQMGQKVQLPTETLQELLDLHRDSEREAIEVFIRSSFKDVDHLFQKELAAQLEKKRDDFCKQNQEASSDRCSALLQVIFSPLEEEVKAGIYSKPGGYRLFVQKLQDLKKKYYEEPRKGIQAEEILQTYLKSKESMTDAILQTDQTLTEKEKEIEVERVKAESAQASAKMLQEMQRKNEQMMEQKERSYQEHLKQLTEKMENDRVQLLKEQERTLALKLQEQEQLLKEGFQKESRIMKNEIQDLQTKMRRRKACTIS

The target of the next experiment is T4, GBP1 mutant D103N (human, UniProt P32455 1-592, D103N).
T4 sequence (looked up): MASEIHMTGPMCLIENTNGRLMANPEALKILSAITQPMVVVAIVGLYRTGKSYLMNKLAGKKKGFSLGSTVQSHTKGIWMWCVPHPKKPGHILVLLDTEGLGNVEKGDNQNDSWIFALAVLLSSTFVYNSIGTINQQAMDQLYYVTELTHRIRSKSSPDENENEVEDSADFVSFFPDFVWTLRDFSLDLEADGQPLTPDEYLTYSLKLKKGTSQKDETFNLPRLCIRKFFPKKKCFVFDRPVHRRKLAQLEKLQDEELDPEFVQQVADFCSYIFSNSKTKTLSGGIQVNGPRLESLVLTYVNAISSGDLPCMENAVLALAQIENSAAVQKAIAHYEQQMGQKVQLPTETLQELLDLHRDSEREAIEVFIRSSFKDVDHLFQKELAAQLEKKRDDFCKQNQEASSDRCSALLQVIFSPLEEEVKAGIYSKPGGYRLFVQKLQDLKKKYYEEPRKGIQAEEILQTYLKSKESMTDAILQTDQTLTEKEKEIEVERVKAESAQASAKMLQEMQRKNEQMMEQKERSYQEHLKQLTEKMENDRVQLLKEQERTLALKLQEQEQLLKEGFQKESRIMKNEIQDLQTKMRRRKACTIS

B1: PIM1 (recombinant) (enzyme)
chain: not shown
For the molecule B1, the Kd with GBP1 mutant D184A was found to be 80 ± 5 nM; with GBP1 mutant Q72A it was 62 ± 2 nM; in experiment [1], 67 ± 20 nM; with GBP1 mutant D103N, 21 ± 1 nM.
